Data as given in patent US20150266977A1 (AbbVie / Abbott, published 2015).

T1: recombinant human sclerostin (human, UniProt Q9BQB4 24-213)
T1 construct: biotinylated in the ELISAs; also called hu sclerostin; hu scl
T1 sequence: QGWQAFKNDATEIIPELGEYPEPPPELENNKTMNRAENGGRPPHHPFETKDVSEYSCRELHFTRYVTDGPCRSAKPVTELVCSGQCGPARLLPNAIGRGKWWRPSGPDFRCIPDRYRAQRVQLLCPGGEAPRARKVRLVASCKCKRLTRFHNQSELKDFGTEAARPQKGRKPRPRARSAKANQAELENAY


What was measured:
[1] = molecular target: T2, recombinant human TNF-α (human, UniProt P01375 77-233); test: SPR
T2 construct: also called huTNF; Human TNFa
Protocol: (§1) The binding of antibodies or anti-sclerostin-TNF DVD to purified recombinant human, cynomolgus monkey (cyno), rat and mouse sclerostin and TNFα was determined by surface plasmon resonance-based measurements with a Biacore T100 or T200 instruments (GE Healthcare Life Sciences, Piscataway, N.J., USA) using running HBS-EP+ (10 mM HEPES [pH 7.4], 150 mM NaCl, 3 mM EDTA, and 0.005% surfactant P20) containing additional 150 mM NaCl, and/or 10 mg/ml carboxymethyl dextran, 0.1 mg/ml BSA at 25° C. All chemicals were obtained from GE Healthcare Life Sciences, Piscataway, N.J., USA or otherwise from a different source as described in the text. Approximately 10,000 RU (or 3000 RU when CM3 chip was used) of goat anti-mouse or anti-human IgG (Fcγ) fragment specific polyclonal antibody (Pierce Biotechnology Inc, Rockford, Ill.) diluted in 10 mM sodium acetate (pH 4.5) was directly immobilized across a CM5 (or CM3) research grade biosensor chip using a standard amine coupling kit according to manufacturer's instructions and procedures at 15 μg/ml. Unreacted moieties on the biosensor surface were blocked with ethanolamine. Modified carboxymethyl dextran surface in flowcells 2, 3 and 4 were used as a reaction surface. Modified carboxymethyl dextran in flow cell 1 was used as the reference surface. Biaevaluation T100 software version 2.0.2, GE Healthcare Life Sciences was used to simultaneously fit association and dissociation phases of all injections (using 1:1 fit analysis with local Rmax). Purified antibodies were diluted in running buffer for capture across goat anti-mouse or anti-human IgG specific reaction surfaces. Antibodies to be captured as a ligand (1 μg/ml) were injected over reaction matrices at a flow rate of 10 μl/minute. The association and dissociation rate constants, kon (unit M-1 s-1) and koff (unit s-1) were determined under a continuous flow rate of 50 μl/minute. […] At the end of each cycle the surfaces were regenerated with 10 s injection of 50 mM NaOH or/and by 10 s injection of 10 mM Glycine pH1.5 at a flow rate of 100 μl/min.

[2] = molecular target: T1, recombinant human sclerostin; test: SPR
Protocol: as §1

[3] = molecular target: Rhesus/cynoTNFa (Rhesus/cyno); test: cell-based or functional assay
[4] = molecular target: T2, recombinant human TNF-α; test: cell-based or functional assay
[5] = molecular target: T3, recombinant cynomolgus monkey sclerostin (cynomolgus monkey); test: SPR
T3 construct: also called cyno sclerostin; Cyno sclerostin
Protocol: as §1

[6] = molecular target: T2, recombinant human TNF-α; test: cell-based or functional assay; remark: listed apart in the source

T2 sequence (P01375 77-233 limits assumed): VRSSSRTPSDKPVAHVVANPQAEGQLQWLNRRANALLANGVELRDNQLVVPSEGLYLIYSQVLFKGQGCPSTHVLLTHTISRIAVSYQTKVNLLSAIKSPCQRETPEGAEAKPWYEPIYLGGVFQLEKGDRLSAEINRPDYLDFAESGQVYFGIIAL
Chain of Rhesus/cynoTNFa (Rhesus/cyno) (P48094 whole entry): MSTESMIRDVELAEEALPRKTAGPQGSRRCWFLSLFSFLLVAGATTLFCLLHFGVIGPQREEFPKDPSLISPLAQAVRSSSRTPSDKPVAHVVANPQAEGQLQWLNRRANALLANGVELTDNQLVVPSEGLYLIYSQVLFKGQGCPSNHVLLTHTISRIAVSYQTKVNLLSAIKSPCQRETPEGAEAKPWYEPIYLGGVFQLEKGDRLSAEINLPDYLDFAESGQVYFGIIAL

Kd [1] [nM]	koff [1] [s⁻¹]	kon [1] [M⁻¹ s⁻¹]	Kd [2] [nM]	koff [2] [s⁻¹]	kon [2] [M⁻¹ s⁻¹]	L929 TNF neutralization IC50 [3] [nM]	L929 TNF neutralization IC50 [4] [nM]	Kd [5] [nM]	koff [5] [s⁻¹]	kon [5] [M⁻¹ s⁻¹]	L929 TNF neutralization IC50 with 50 nM SOST [6] [nM]	L929 TNF neutralization IC50 without 50 nM SOST [6] [nM]	Binder
0.017	4.4e-05	2.6e+06	0.052	8.3e-06	160000	0.0569	0.0581	–	–	–	–	–	MAK199-1-SS-AE10-6 AM7 (bispecific antibody, human IgG1, lambda, L234A L235A, DVD-Ig: outer MAK199-1, inner AE10-6 AM7) heavy: not shown light: DIQMTQSPSSLSASVGDRVTITCRASQDISQYLNWYQQKPGKAPKLLIYYTSRLQSGVPSRFSGSGSGTDFTLTISSLQPEDFATYFCQQGNTWPPTFGQGTKLEIKRTVAAPQAVVTQEPSLTVSPGGTVTLTCGSSTGTVTIDHYPYWFQQKPGQAPRTLISDTDDKHSWTPARFSGSLLGGKAALTLSGAQPEDEAEYYCLLDYGGRFVFGGGTKLTVLGQPKAAPSVTLFPPSSEELQANKATLVCLISDFYPGAVTVAWKADSSPVKAGVETTTPSKQSNNKYAASSYLSLTPEQWKSHRSYSCQVTHEGSTVEKTVAPTECS
0.027	5.8e-05	2.1e+06	0.00039	2.3e-06	5.9e+06	0.042	0.0677	< 0.00011	< 1e-06	9.3e+06	0.036	0.025	MAK199-1-GS-AE10-6 AM7 (bispecific antibody, human IgG1, lambda, L234A L235A, DVD-Ig: outer MAK199-1, inner AE10-6 AM7; also called MAK199-1-GS-AM10-6 AM7; MAK199-1GSAM10-6 AM7) heavy: not shown light: DIQMTQSPSSLSASVGDRVTITCRASQDISQYLNWYQQKPGKAPKLLIYYTSRLQSGVPSRFSGSGSGTDFTLTISSLQPEDFATYFCQQGNTWPPTFGQGTKLEIKRGGSGGGGSGQAVVTQEPSLTVSPGGTVTLTCGSSTGTVTIDHYPYWFQQKPGQAPRTLISDTDDKHSWTPARFSGSLLGGKAALTLSGAQPEDEAEYYCLLDYGGRFVFGGGTKLTVLGQPKAAPSVTLFPPSSEELQANKATLVCLISDFYPGAVTVAWKADSSPVKAGVETTTPSKQSNNKYAASSYLSLTPEQWKSHRSYSCQVTHEGSTVEKTVAPTECS
